Measured values taken from patent CN114249819A.

Tests used:
[1] = molecular target: 猫泛白细胞减少症病毒1009株 (Feline panleukopenia virus); experiment: indirect immunofluorescence on acetone-fixed F81 cells infected with FPV 1009 strain
[2] = molecular target: 猫泛白细胞减少症病毒1009株 (Feline panleukopenia virus); experiment: cell-based or functional assay

B1: 单克隆抗体3C3 (antibody, V domains shown)
VH: DVKLVESGGGLVNLGGSLKLSCAASGFTFSSYYMSWVRQTPEKRLELVAAINSNGGGTHSPDTVKGRFTISRDNAKNTLYLQMSSLESEDTALYYCARHADDGSFGLNWYFDVWGAGTTVTVSS
VL: DIVMSQSPSSLAVSVGEKVTMSCKSSQSLLYRSNEKNYLAWYQQKPGQSPKLLIYWGSTRESGVPDRFTGSGSGTDFTLTISSVKAEDLAVYYCHQYYRYSYTFGGGTKLEIK
Binder B1 has an IFA效价 (reciprocal dilution (printed 1:n)) [1] of 6400 and an HI效价 (reciprocal dilution (printed 1:n)) [2] of 5120.
